Tests used:
Type in all cases: cell-based, mouse
cDC1 = cDC1 migration, Boyden chamber assay; conditions: supernatants of γδ T cells pretreated with IL-38, 2 hours
Method: Boyden chamber assays were performed using a 96 well-plate with 4.26 mm transwell inserts with 5.0 µm pore polycarbonate membrane (Corning). Briefly, 1.4×10^4 DC-enriched murine splenocytes (EasySep Mouse Pan-DC Enrichment Kit II, STEMCELL Technologies) were suspended in serum-free RPMI 1640 medium and added to transwell inserts. Supernatants collected after 24 hours of γδ T cells stimulation (described above) were pre-incubated with either 15 µg/mL IgG isotype control (R&D Systems) or 15 µg/mL anti-Xcl1 (R&D Systems) and added to the bottom compartment. Cells were harvested 2 hours later and migrated and non-migrated cells were analyzed by FACS. The percentage of migrated cDC1 was determined by the ratio of migrated/non-migrated cells.

splenic γδ T cells = test: γδ T cell / CD8+ T cell culture with recombinant IL-38; conditions: 100 ng/mL daily, day 5, cytometric bead array
Method: γδ T cells and CD8+ T cells were isolated from murine spleens by fluorescence-activated cell sorting (FACS) and co-cultured at a ratio of 1:10. The cells were cultured in T-cell medium Roswell Park Memorial Institute (RPMI) 1640 with 5 mM glutamine, 100 U/mL penicillin, 100 µg/mL streptomycin, 10% heat-inactivated fetal calf serum (FCS), 1% non-essential and essential amino acids, 1% sodium pyruvate and 1% 4-(2-hydroxyethyl)-1-piperazineethanesulfonic acid (HEPES) followed by activation with mouse T-cell activator CD3/CD28 Dynabeads (Thermo Fisher Scientific), 10 ng/mL of recombinant murine (rm) IL-23 and rm IL-1β (both from Bio-Techne). Cells were supplemented with 10 ng/mL rm IL-2 (PrepoTech) at days 0, 2 and 5 and daily with 100 ng/mL rm IL-38 (AdipoGen) and 50 μM β-mercaptoethanol. Cells were cultured for up to 5 days. At the endpoint, supernatants were collected for cytokine determination and cell proliferation was analyzed by flow cytometry.
To measure the cytokines in PyMT tumors and cell culture supernatants, Cytometric Bead Array Flex Sets (BD Biosciences) were used for murine IL-17A and IFN-γ. The samples were acquired via FACS and analyzed with FlowJo Software V.10 (Tree Star).

γδ T cells = test: Xcl1 production by activated γδ T cells (ELISA); conditions: 100 ng/mL, 24 hours
Method: γδ T cells isolated from murine spleen were cultured in T-cell medium, activated with mouse T-cell activator CD3/CD28 Dynabeads (Thermo Fisher Scientific), except for the negative control, and supplemented with 10 ng/mL rm IL-2 (PrepoTech), 100 ng/mL rm IL-38 (AdipoGen) and […] β-mercaptoethanol. Supernatants were collected 24 hours after seeding for the determination of Xcl1 levels.
Xcl1 levels were determined from supernatants collected from γδ T-cell cultures using Mouse Xcl1/Lymphotactin DuoSet ELISA Kit (R&D Systems) according to the manufacturer’s instructions.

B1: recombinant IL-38: recombinant murine IL-38 (AdipoGen) (protein)
chain: MCSLPMARYYIIKDAHQKALYTRNGQLLLGDPDSDNYSPEKVCILPNRGLDRSKVPIFLGMQGGSCCLACVKTREGPLLQLEDVNIEDLYKGGEQTTRFTFFQRSLGSAFRLEAAACPGWFLCGPAEPQQPVQLTKESEPSTHTEFYFEMSR
For B1, the “cDC1 migration towards γδ T-cell supernatants” value (cDC1) was “reduced”, the “IFN-γ secretion in γδ T cell / CD8+ T cell co-culture” value (splenic γδ T cells) was “limited the secretion of IFN-γ” and the “IL-17 production by splenic γδ T cells” value (splenic γδ T cells) was “effectively suppressed IL-17 production”. The “Xcl1 levels on γδ TCR-dependent activation” value (γδ T cells) was “suppressed”.

From PMC11367332, “Neutralizing IL-38 activates γδ T cell-dependent antitumor immunity and sensitizes for chemotherapy” (Journal for Immunotherapy of Cancer, 2024)
